# Reference: US20130344070A1 (SORRENTO THERAPEUTICS, published 2013)
# Tests used:
# [1] = target: T1, human CCR2 (CC-Chemokine Receptor 2) (human, UniProt P41597 1-374); experiment: flow cytometry on CHO-huCCR2 cells, PE anti-human IgG
# T1 construct: whole, on cells; also called huCCR2; CHO-huCCR2
# Protocol: The data in FIG. 1 illustrates in vitro data for cellular binding EC₅₀ measurements. […] In this example, CHO-CCR2 cells were lifted from culture flasks using non-enzymatic Cell Dissociation Buffer—PBS based (Life Technologies #13151-014). Cells were resuspended in FACS Buffer (2% Fetal Bovine Serum in PBS) at 1×10⁶ cells/ml and 100 μl (1×10⁵ cells) were aliquoted into the wells of a 96-well plate. Plated cells were spun down and the supernatant discarded. Cells were resuspended in 50 μl FACS Buffer containing the indicated concentrations of CCR2 D1 IgG in triplicate (FIG. 1). Plates were incubated for 1 hr at 4° C., then washed 1× with FACS Buffer. Cells were resuspended in 50 μl goat anti-human IgG (γ-chain specific)-PE conjugated secondary antibody (Southern Biotech #2040-09) diluted 1:500 in FACS Buffer. Cells were further incubated for 30 min at 4° C. and then washed 1× with FACS Buffer. The cells were resuspended in a final volume of 25 μl FACS Buffer and analyzed using the Intellicyt Flow Cytometer. Median fluorescence in the FL-2H channel was determined using FlowJo software and EC₅₀ value was determined by plotting the data in GraphPad Prism and analyzing using a variable slope non-linear regression.
# [2] = target: T1, human CCR2 (CC-Chemokine Receptor 2); experiment: cell-based or functional assay
# murine CCR2 [3] = target: T2, murine CCR2 (murine, UniProt P51683 1-373); experiment: cell-based or functional assay
# murine CCR2 [4] = target: T2, murine CCR2; experiment: flow cytometry on WEHI 274.1 cells (murine CCR2), PE anti-human IgG
# Protocol: In this example, WEHI 274.1 cells were resuspended in FACS Buffer (2% Fetal Bovine Serum in PBS) at 1×10⁶ cells and […] of cell suspension was aliquoted into the wells of a 96-well plate. Plated cells were spun down and the supernatant discarded. Cells were resuspended in 30 μl FACS Buffer containing serially diluted anti-CCR2 IgGs in triplicate. Plates were incubated for 1 hr at 4° C., then washed 2× with FACS Buffer. Cells were resuspended in 50 μl goat anti-human IgG (γ-chain specific)-PE conjugated secondary antibody (Southern Biotech #2040-09) diluted 1:500 in FACS Buffer, incubated for 30 min at 4° C. and then washed 1× with FACS Buffer. The cells were resuspended in a final volume of 30 μl FACS Buffer and analyzed using the Intellicyt Flow Cytometer. Median fluorescence in the FL-2H channel was determined using FlowJo software and EC₅₀ values were determined by plotting the data in GraphPad Prism and analyzed using a variable slope non-linear regression.
# [5] = target: T1, human CCR2 (CC-Chemokine Receptor 2); experiment: cell-based or functional assay; remark: listed apart in the source
# [6] = target: T1, human CCR2 (CC-Chemokine Receptor 2); experiment: cell-based or functional assay; remark: listed apart in the source
# T2 sequence (P51683 whole entry): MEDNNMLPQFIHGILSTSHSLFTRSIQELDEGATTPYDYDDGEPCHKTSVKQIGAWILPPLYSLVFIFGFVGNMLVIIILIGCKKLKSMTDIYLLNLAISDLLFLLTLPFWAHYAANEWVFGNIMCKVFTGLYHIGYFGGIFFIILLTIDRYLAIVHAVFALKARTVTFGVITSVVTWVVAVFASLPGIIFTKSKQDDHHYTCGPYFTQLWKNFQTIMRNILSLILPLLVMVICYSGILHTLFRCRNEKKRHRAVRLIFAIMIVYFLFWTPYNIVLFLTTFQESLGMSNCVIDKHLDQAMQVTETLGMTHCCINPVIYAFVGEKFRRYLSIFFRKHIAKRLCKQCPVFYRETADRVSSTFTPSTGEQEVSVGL
# T1 sequence (P41597 whole entry): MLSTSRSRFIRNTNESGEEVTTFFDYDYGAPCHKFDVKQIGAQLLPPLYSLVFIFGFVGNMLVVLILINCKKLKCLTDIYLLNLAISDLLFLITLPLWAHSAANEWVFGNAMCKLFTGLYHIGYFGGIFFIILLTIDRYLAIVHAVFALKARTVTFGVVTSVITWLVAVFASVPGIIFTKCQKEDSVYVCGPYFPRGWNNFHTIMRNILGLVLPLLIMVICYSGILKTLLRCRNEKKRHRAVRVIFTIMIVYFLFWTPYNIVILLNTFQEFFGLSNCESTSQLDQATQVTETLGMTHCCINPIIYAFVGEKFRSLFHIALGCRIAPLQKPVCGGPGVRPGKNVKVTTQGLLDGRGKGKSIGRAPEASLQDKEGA
binder,measurement,setting,value
"54A9 (antibody, V domains shown, tested as IgG) VH: VQLVESGAEVKKPGASVKVSCKASGYTFSSHYMHWVRQAPGQGLEWMGIINPSGGSTIYAQKFQGRVTINADESTSTAYMELSSLGSDDTAVYYCARAAGGAVAGHGARFDYWGQGTLVTVSS VL: LPVLTQPASVSGSPGQSITISCTGTSSDVGGYNYVSWYQQHPGKAPKLMIYDVSNRPSGVSNRFSGSKSGNTASLTISGLQAEDEADYYCSSYRRSSTLVFGGGTKLTVL",EC50,[1],0.53 nM
"43D12 (antibody, V domains shown, tested as IgG; 27/28 '43D12'; the text calls the same pair '43G12'; also called 43G12) VH: EVQLVESGGGLVQPGGSLRLSCVASGFTFSDYWMSWVRQAPGKGLEWVANIKKDGSVNYYVDSVKGRFTISRDNAKNSLYLQMNSLRAEDTAVYYCTRFDYWGQGTLVTVSS VL: QAGLTQPPSVSKGLRQTATLTCTGNSNNVGNQGAAWLQQHQGHPPKLLFYRNNNRASGISERLSASRSGNTASLTITGLQPEDEADYYCLTWDSSLSVVVFGGGTKLTVL",EC50,[1],1.8 nM
"D1-1/LO (antibody, V domains shown, The suffix '/LO' is not explained) VH: QVQLVQSGAEVKKPGASVKVSCKASGYTFTGYYMHWVRQAPGQGLEWMGWINPNSGVTKYAQKFQGRVTMTRDTSTSTVYMELSSLRSEDTAVYYCATGGFGYWGEGTLVTVSS VL: LPVLTQPPSVSKGLRQTATLTCTGNSNNVGNQGAAWLQQHQGQPPKLLSYRNHNRPSGVSERFSPSRSGDTSSLTITGLQPEDEADYYCLAWDSSLRAFVFGTGTKLTVL","IC50 in chemotaxis assay using human THP-1 cells, ligand MCP-1 (3 nM)",[2],0.13 nM
same,"IC50 in chemotaxis assay using human THP-1 cells, ligand MCP-3 (1.1 nM)",[2],0.1 nM
same,"IC50 in chemotaxis assay using mouse WEHI cells, ligand mouse MCP-1 (0.7 nM)",murine CCR2 [3],0.035 nM
same,EC50,[1],0.13 nM
same,EC50,murine CCR2 [4],4.8 nM
"1B11 (antibody, V domains shown, tested as IgG) VH: QVQLVESGGGVVQPGRSLRLSCAASGFTFSSYAMHWVRQAPGKGLEWVAVISYDGSNKYYADSVKGRFTISRDNSKNTLYLQMNSLKAEDTAVYYCATAAAGPFDYWGQGTTVTVSS VL: LPVLTQPPSVSKGLRQTATLTCTGNSNNVGNQGAAWLQQHQGQPPKLLSYRNHNRPSGVSERFSPSRSGDTSSLTITGLQPEDEADYYCLAWDSSLRAFVFGTGTKLTVL",EC50,[1],2.3 nM
"1G11 (antibody, human IgG1, V domains shown) VH: EVQLVESGAEVKKPGASVKVSCKASGYIFTGYYIHWVRQAPGQGLEWMGWINPNNGVTKYAEKFQGRVTMTRDTSITTAYMDLSRLRSDDTAIYYCATGGFEYWGQGTLVTVSS VL: LPVLTQPPSVSKGLRQTATLTCTGNSNNVGNQGAAWLQQHQGQPPKLLSYRNHNRPSGVSERFSPSRSGDTSSLTITGLQPEDEADYYCLAWDSSLRAFVFGTGTKLTVL",IC50 on MCP-1 (3 nM) induced THP-1 cell migration,[5],0.079 nM
same,IC50 on MCP-5 (6 ng/ml) induced THP-1 cell migration,[5],0.261 nM
same,"IC50 in chemotaxis assay using human THP-1 cells, ligand MCP-1 (3 nM)",[2],0.08 nM
same,"IC50 in chemotaxis assay using human THP-1 cells, ligand MCP-2 (6.7 nM)",[2],0.16 nM
same,"IC50 in chemotaxis assay using human THP-1 cells, ligand MCP-3 (1.1 nM)",[2],0.07 nM
same,"IC50 in chemotaxis assay using human THP-1 cells, ligand MCP-4 (35 nM)",[2],0.06 nM
same,"IC50 in chemotaxis assay using human THP-1 cells, ligand MCP-5 (0.65 nM)",[2],0.26 nM
same,"IC50 in calcium flux assay using human THP-1 cells, ligand MCP-1 (2.5 nM)",[6],0.75 nM
same,"IC50 in calcium flux assay using human THP-1 cells, ligand MCP-3 (22 nM)",[6],0.25 nM
same,"IC50 in calcium flux assay using human THP-1 cells, ligand MCP-5 (0.43 nM)",[6],0.56 nM
same,EC50,[1],0.34 nM
"1B2 (antibody, human IgG1, V domains shown) VH: EVQLVESGAEVKKPGASVKVSCKASGYTFTGYYMNWVRQAPGQGLEWMGWINPNSGGTKYAQKFQGRVTMTSDTSINTAYMELSRLRYDDTAVYYCATGGFQHWGQGTLVTVSS VL: LPVLTQPPSVSKGLRQTATLTCTGNSNNVGNQGAAWLQQHQGQPPKLLSYRNHNRPSGVSERFSPSRSGDTSSLTITGLQPEDEADYYCLAWDSSLRAFVFGTGTKLTVL",IC50 on MCP-1 (3 nM) induced THP-1 cell migration,[5],0.087 nM
same,IC50 on MCP-5 (3 nM) induced THP-1 cell migration,[5],0.197 nM
same,"IC50 in chemotaxis assay using human THP-1 cells, ligand MCP-1 (3 nM)",[2],0.09 nM
same,"IC50 in chemotaxis assay using human THP-1 cells, ligand MCP-2 (6.7 nM)",[2],0.06 nM
same,"IC50 in chemotaxis assay using human THP-1 cells, ligand MCP-3 (1.1 nM)",[2],0.04 nM
same,"IC50 in chemotaxis assay using human THP-1 cells, ligand MCP-4 (35 nM)",[2],0.05 nM
same,"IC50 in chemotaxis assay using human THP-1 cells, ligand MCP-5 (0.65 nM)",[2],0.2 nM
same,"IC50 in calcium flux assay using human THP-1 cells, ligand MCP-1 (2.5 nM)",[6],0.92 nM
same,"IC50 in calcium flux assay using human THP-1 cells, ligand MCP-3 (22 nM)",[6],0.29 nM
same,"IC50 in calcium flux assay using human THP-1 cells, ligand MCP-5 (0.43 nM)",[6],0.89 nM
same,EC50,[1],0.36 nM
"1H5 (antibody, V domains shown, tested as IgG) VH: EVQLVQSGAEVKKPGASVKVSCKASGYTFTSYYMHWVRQAPGQGLEWMGIINPSGGSTSYAHKFQGRVTMTRDTSTSTVYMELSSLRSEDTAVYYCARGGHVLRFLEWLGLEGPFDYWGQGTLVTVSS VL: LPVLTQPPSVSKGLRQTATLTCTGNSNNVGNQGAAWLQQHQGQPPKLLSYRNHNRPSGVSERFSPSRSGDTSSLTITGLQPEDEADYYCLAWDSSLRAFVFGTGTKLTVL",IC50 on MCP-1 (3 nM) induced THP-1 cell migration,[5],0.109 nM
same,IC50 on MCP-2 (30 ng/ml) induced THP-1 cell migration,[5],1.9 nM
same,IC50 on MCP-3 (6 ng/ml) induced THP-1 cell migration,[5],2.6 nM
same,IC50 on MCP-4 (200 ng/ml) induced THP-1 cell migration,[5],1.4 nM
same,IC50 on MCP-5 (6 ng/ml) induced THP-1 cell migration,[5],0.349 nM
same,EC50,[1],1.3 nM
"D1-7/LO (antibody, V domains shown, tested as IgG. '/LO' not explained) VH: QVQLVQSGAEVKKPGASVKVSCKASGYTFTGYYMHWVRQAPGQGLEWMGWINPNSGVTKYAQKFQGRVTMTRDTSTSTVYMELSSLRSEDTAVYYCATGSGGGTMDVWGEGTLVTVSS VL: LPVLTQPPSVSKGLRQTATLTCTGNSNNVGNQGAAWLQQHQGQPPKLLSYRNHNRPSGVSERFSPSRSGDTSSLTITGLQPEDEADYYCLAWDSSLRAFVFGTGTKLTVL",EC50,[1],0.08 nM
"1A2 (antibody, V domains shown, tested as IgG) VH: EVQLVQSGAEVKKPGASVKVSCKASGYTFTSYYMHWVRQAPGQGLEWMGIINPSGGSTSYAQKFQGRVTMTRDTSTSTVYMELSSLRSEDTAVYYCATGSGGGTMDVWGQGTTVTVSS VL: LPVLTQPPSVSKGLRQTATLTCTGNSNNVGNQGAAWLQQHQGQPPKLLSYRNHNRPSGVSERFSPSRSGDTSSLTITGLQPEDEADYYCLAWDSSLRAFVFGTGTKLTVL",EC50,[1],2.9 nM
"D1-6/LO (antibody, V domains shown, tested as IgG. '/LO' not explained) VH: QVQLVQSGAEVKKPGASVKVSCKASGYTFTGYHMHWVRQAPGQGLEWMGIINPSSGSTKYAQKFQGRVTMTRDTSTSTVYMELSSLRSEDTAVYYCATGGFGYWGEGTLVTVSS VL: LPVLTQPPSVSKGLRQTATLTCTGNSNNVGNQGAAWLQQHQGQPPKLLSYRNHNRPSGVSERFSPSRSGDTSSLTITGLQPEDEADYYCLAWDSSLRAFVFGTGTKLTVL",EC50,[1],3.5 nM
"D1-4/LO (antibody, V domains shown, tested as IgG. '/LO' not explained) VH: QVQLVQSGAEVKKPGASVKVSCKASGYTFTGYYMHWVRQAPGQGLEWMGIINPSGGSTSYAQKFQGRVTMTRDTSTSTVYMELSSLRSEDTAVYYCATGGFGYWGEGTLVTVSS VL: LPVLTQPPSVSKGLRQTATLTCTGNSNNVGNQGAAWLQQHQGQPPKLLSYRNHNRPSGVSERFSPSRSGDTSSLTITGLQPEDEADYYCLAWDSSLRAFVFGTGTKLTVL",EC50,[1],1.6 nM
"D1-2/LO (antibody, V domains shown, tested as IgG. '/LO' not explained) VH: QVQLVQSGAEVKKPGASVKVSCKASGYTFTGYHMHWVRQAPGQGLEWMGIINPSGGSTSYAQKFQGRVTMTRDTSTSTVYMELSSLRSEDTAVYYCATGGFGYWGEGTLVTVSS VL: LPVLTQPPSVSKGLRQTATLTCTGNSNNVGNQGAAWLQQHQGQPPKLLSYRNHNRPSGVSERFSPSRSGDTSSLTITGLQPEDEADYYCLAWDSSLRAFVFGTGTKLTVL",EC50,[1],16 nM
same,EC50,murine CCR2 [4],81 nM
"42G7 (antibody, V domains shown, tested as IgG) VH: QVQLVQSGAEVKKPGASVKVSCKASGYTFSSYYMHWVRQAPGQGLEWMGIINPSGGNTSYAQKFQGRVTMTRDTSTSTVYMELSSLRSEDTAVYYCARGGYQLPHGRARAFDMWGQGTMVTVSS VL: AIRMTQSPLSLPVTLGQPASISCTSSQSLVYRDGTTYLNWFQQRPGQSPRRLIYKVSNRDSGVPDRFTGSGSGTTFTLTISRVEAEDVGIYYCMQGTHWPLTFGQGTKVEI",EC50,[1],15 nM
